Test results as given in publication PMC3589125 (Structure (London, England : 1993), 2012).
Peptide text beside a SMILES is read from it.

Columns and labels:
JNK3α1 [1] = biological target: T1, JNK3α1 (Homo sapiens, UniProt P53779); test: FRET displacement of labeled JIP1 peptide, JNK3α1; format: binding; settings: FRET IC50 for displacement of labeled JIP1 peptide, Inactive JNK3α1
active JNK3α1 (39–422) = active JNK3α1 (39–422) (UniProt P53779)
JNK3α1 [2] = biological target: T1, JNK3α1; test: Km of protein substrates for JNK3α1; format: biochemical; settings: read-out: Km for JNK3α1; protein substrate
Active JNK1β1 = Active JNK1β1 (UniProt P45983-3 1-384, phosphorylated in the activation loop by incubation with active MKK4 and MKK7); test: FRET or BRET
Inactive JNK1β1 = Inactive JNK1β1 (UniProt P45983-3 1-384); test: FRET or BRET
JNK3α1 (39–422) = JNK3α1 (39–422) (UniProt P53779-2 39-422); test: ITC
Inactive JNK3α1, P53779 = test: FRET or BRET

IC50 (Active JNK1β1) [µM] | IC50 (Inactive JNK1β1) [µM] | Kd (JNK3α1 (39–422)) [µM] | dH (JNK3α1 (39–422)) [kcal/mol] | Molecule | other results
 |  |  |  | CC(C)C[C@H](NC(=O)[C@H](CC(N)=O)NC(=O)[C@H](CC(C)C)NC(=O)[C@@H](NC(=O)[C@@H](NC(=O)[C@@H]1CCCN1C(=O)[C@H](CCCN=C(N)N)NC(=O)[C@H](CCCCN)NC(=O)[C@@H]1CCCN1C(=O)[C@@H](N)CCCN=C(N)N)[C@@H](C)O)[C@@H](C)O)C(=O)N[C@@H](Cc1ccccc1)C(=O)O [pepJIP] (H-RPKRPTTLNLF-OH) | IC50 (JNK3α1 [1]): 1.7 ± 0.4 µM
 |  |  |  | CC(C)C[C@H](NC(=O)[C@H](CO)NC(=O)CNC(=O)[C@@H]1CCCN1C(=O)[C@H](CCCNC(=N)N)NC(=O)[C@@H](NC(=O)[C@@H](NC(=O)[C@H](C)N)C(C)C)C(C)C)C(=O)N[C@@H](CC(=O)O)C(=O)N[C@@H](CC(C)C)C(=O)N1CCC[C@H]1C(=O)O [pepSAB] (H-AVVRPGSLDLP-OH) | IC50 (JNK3α1 [1]): 834 ± 105 µM
 |  |  |  | His-SAB (1–390) (domain or fragment) MDAALKRSRSEEPAEILPPARDEEEEEEEGMEQGLEEEEEVDPRIQGELEKLNQSTDDINRRETELEDARQKFRSVLVEATVKLDELVKKIGKAVEDSKPYWEARRVARQAQLEAQKATQDFQRATEVLRAAKETISLAEQRLLEDDKRQFDSAWQEMLNHATQRVMEAEQTKTRSELVHKETAARYNAAMGRMRQLEKKLKRAINKSKPYFELKAKYYVQLEQLKKTVDDLQAKLTLAKGEYKMALKNLEMISDEIHERRRSSAMGPRGCGVGAEGSSTSVEDLPGSKPEPDAISVASEAFEDDSCSNFVSEDDSETQSVSSFSSGPTSPSEMPDQFPAVVRPGSLDLPSPVSLSEFGMMFPVLGPRSECSGASSPECEVERGDRAEGA | Km of SAB (1–390) as substrate of JNK3α1 (active JNK3α1 (39–422)): 0.77 µM
 |  |  |  | SAB (1–390): recombinant SAB protein substrate for JNK kinase assays (protein, left off: His, end not stated, kept) MDAALKRSRSEEPAEILPPARDEEEEEEEGMEQGLEEEEEVDPRIQGELEKLNQSTDDINRRETELEDARQKFRSVLVEATVKLDELVKKIGKAVEDSKPYWEARRVARQAQLEAQKATQDFQRATEVLRAAKETISLAEQRLLEDDKRQFDSAWQEMLNHATQRVMEAEQTKTRSELVHKETAARYNAAMGRMRQLEKKLKRAINKSKPYFELKAKYYVQLEQLKKTVDDLQAKLTLAKGEYKMALKNLEMISDEIHERRRSSAMGPRGCGVGAEGSSTSVEDLPGSKPEPDAISVASEAFEDDSCSNFVSEDDSETQSVSSFSSGPTSPSEMPDQFPAVVRPGSLDLPSPVSLSEFGMMFPVLGPRSECSGASSPECEVERGDRAEGA | Km (JNK3α1 [2]): 0.77 ± 0.09 µM
169 ± 2 | 350 ± 12 |  |  | KHKHEMTLKFG [pepATF2Hu(46–56)] | 
386 ± 10 | 612 ± 21 | 17.2 ± 0.6 | -4.02 | AVVRPGSLDLP [pepSABhu(40–350)] | IC50 (Inactive JNK3α1, P53779): 834 µM
0.68 ± 0.02 | 2.5 ± 0.1 | 0.8 ± 0.1 | -7.65 | RPKRPTTLNLF [pepJIPhu(157–167)] | IC50 (Inactive JNK3α1, P53779): 1.7 µM
 |  | 11.7 ± 1 | -6.71 | RPKHPTTLNLF [JIP1 R160H] | 
 |  | 4.9 ± 0.5 | -7.11 | RPKRPGTLNLF [JIP1 T162G] | 
 |  | 32.1 ± 3.2 | -5.46 | RPKQPTTLNLF [JIP1 R160Q] | 
